Measured values as given in publication PMC4312765 (Protein & Cell, 2014).

Biological target: the molecule itself
Assay: static light scattering + AUC; Dpy30FL and Dpy30C in solution

B1: Dpy30 C-terminal domain (domain or fragment)
chain: not shown
- stoichiometry N: 2
